From PMC8521288
Like-named read-outs stand apart in the source and are kept apart here.

B1: MMP-9 aptamer (annealed to comp-1 on AuNS-1; MMP sensor) (mixed)
DNA 1: TCGTATGGCACGGGGTTGGTGTTGGGTTGG
DNA 2: GGTGTGCCATACGAAA
modifications: 3' ThioMC3-D (thiol) on comp-1
B2: control aptamer (annealed to control comp-1 on cAuNS-1; control sensor) (mixed)
DNA 1: CCGGTGTTCGAGACAAGAGTCCAGGG
DNA 2: CTCTCGAACACCGGAA
modifications: 3' ThioMC3-D (thiol) on control comp-1

Columns and labels:
human MMP-9 (hMMP-9) [1] = target: T1, human MMP-9 (hMMP-9) (Homo sapiens, UniProt P14780 107-457); experiment: AuNS aggregation by strand displacement
T1 sequence (P14780 107-457): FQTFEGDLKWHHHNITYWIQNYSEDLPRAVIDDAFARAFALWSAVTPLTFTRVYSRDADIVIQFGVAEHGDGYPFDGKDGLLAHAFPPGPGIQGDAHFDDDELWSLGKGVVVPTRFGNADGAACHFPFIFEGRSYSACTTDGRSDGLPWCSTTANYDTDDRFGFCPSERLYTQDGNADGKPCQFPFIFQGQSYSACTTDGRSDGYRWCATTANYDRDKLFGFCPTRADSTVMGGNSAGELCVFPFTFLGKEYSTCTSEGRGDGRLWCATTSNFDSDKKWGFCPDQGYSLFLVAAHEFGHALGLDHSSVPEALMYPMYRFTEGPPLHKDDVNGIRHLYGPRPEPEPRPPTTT

human MMP-9 (hMMP-9) [2] = target: T1, human MMP-9 (hMMP-9); experiment: AuNS aggregation by strand displacement; remark: listed apart in the source

| Binder | binding result (human MMP-9 (hMMP-9) [1]) | binding result (human MMP-9 (hMMP-9) [2]) |
| --- | --- | --- |
| B1 | binds | – |
| B2 | – | no binding |
